In paper PMC9177745 (Biochemistry, 2022) one finds KM, Km and kcat data, which are given here for three molecules.

Series [1] deals with T1, PhnY (in the 1:1 PhnY/Z system) (uncultured bacterium HF130_AEPn_1, UniProt D0E8I4).
T1 sequence (D0E8I4 1-262): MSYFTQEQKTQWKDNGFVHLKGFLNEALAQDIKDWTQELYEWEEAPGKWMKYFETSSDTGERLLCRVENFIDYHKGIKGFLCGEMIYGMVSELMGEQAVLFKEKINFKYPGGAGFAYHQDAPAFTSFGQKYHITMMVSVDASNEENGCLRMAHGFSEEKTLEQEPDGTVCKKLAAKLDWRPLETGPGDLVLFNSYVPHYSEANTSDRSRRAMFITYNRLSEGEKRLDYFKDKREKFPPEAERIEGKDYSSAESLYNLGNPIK
Kind of series: steady-state kinetics of the coupled PhnY/Z system. Format: biochemical. The note with it: two-enzyme PhnY/Z system; apparent Km of the system.

Substrate in series [2]: NC[C@H](O)P(=O)(O)O
As to the kind of experiment: steady-state kinetics, C-P bond cleavage. Format: biochemical, uncultured bacterium HF130_AEPn_1. The note with it: O2; mixed-valent diiron site.

Substrate in series [3]: NC[C@H](O)P(=O)(O)O
Kind of series: steady-state kinetics, C-P bond cleavage. It is filed as biochemical, Fonsecaea multimorphosa. The settings on record: O2; mixed-valent diiron HD-domain site.

Substrate in series [4]: NCCCP(=O)(O)O
Kind of series: steady-state kinetics, conversion to inorganic phosphate. It is filed as biochemical, Fonsecaea multimorphosa. The settings on record: two-step reaction to phosphate; co-substrates presumably as for 2AEP.

Substrate in series [5]: NCCP(=O)(O)O
The series is described as above. It is filed as biochemical, Fonsecaea multimorphosa. The note with it: O2, alpha-ketoglutarate, Fe(II), ascorbate; apparent Km of the two-step reaction.

`NCCCP(=O)(O)O` [3APP]: the KM result in series [1] was “the PhnY/Z system is also able to act on 3APP”.

B1: PhnZ (uncultured bacterium HF130_AEPn_1) (protein)
chain: MSLSNSSKVSVLISLLEKSRDLDYIGEAINQLEHSLQCAYFAQRSGADNEMVLAALLHDLGHYCNDTSFEDMGGYGVWQHEKVGADYLRGLGFSERVACLIEGHVAAKRYLVSSKASYLKNLSDASRKTLEYQGGPMDEGERRLFEEREDFKDCLKIRAWDEKGKQTDLKVPGPEHYRKMMEEHLSENQN
B1: in series [2], the Km – broadly, the substrate concentration at which the rate is half of its maximum – was found to be 107 ± 29 µM; the kcat (commonly the number of substrate molecules converted per active site and unit of time at saturation) was found to be 15 ± 3 s⁻¹.

B2: PhoF (Fonsecaea multimorphosa CBS 102226) (protein)
chain: MSVPEEQMQFFRKNGYLILRNVLSEEETKDLQRWAQEVHDWPTDANSPWMPYEEINAQGQTVLCRTENYANSHAGLNGLLRGQKLLNLLKQLSGEDMLLFKEKINYKLAGSGGFAPHVDSTAYTHIKNIKHLAILLAVDPSDMSNGGLEVVEGSHEMNVPIGEDNCIEPDWVKQQKWTPVELKAGQVLVFGSYLAHRSGANHSNQDRKALYATYNCAREGDLHDEYYAHRKVVWPPAQLRKKGEEYKVGALVYGFGSPMLSVDAGKQLEFDEEEWKSKPRAAKAASRIIDILNQYGNSDYIGEPISQIEHSLQCAYLAAQNMADPQTVAAALLHDIGQIIPERDAEHILGGAQVRSMRQNSGIGADSRSSDSVGRVSHETLGAQYLLALGFPAKVAELVEAHVPAKRYLCATEKGYYSTLSDASKESLRFQGGPMSPDEVRLWQEGSWADEKANLRRWDDGAKVVGLTVPGLETYRPVLEQVLSS
Turning to B2, the Km stood at 43 ± 23 µM in series [3], 305 ± 263 µM in series [4] and 197 ± 73 µM in series [5]. For the same molecule, the results for the kcat in series [3], in series [4] and in series [5] were 9 ± 2 s⁻¹, 0.57 ± 0.30 s⁻¹ and 1.16 ± 0.17 s⁻¹, respectively.
